Assay [1] deals with T1, Ferroportin expressed inducibly in 293 cells (Homo sapiens, UniProt Q9NP59).
T1 construct: expressed in transfected cells; host or cells: 293 cells, tetracycline/doxycycline-inducible
T1 sequence (Q9NP59 1-571): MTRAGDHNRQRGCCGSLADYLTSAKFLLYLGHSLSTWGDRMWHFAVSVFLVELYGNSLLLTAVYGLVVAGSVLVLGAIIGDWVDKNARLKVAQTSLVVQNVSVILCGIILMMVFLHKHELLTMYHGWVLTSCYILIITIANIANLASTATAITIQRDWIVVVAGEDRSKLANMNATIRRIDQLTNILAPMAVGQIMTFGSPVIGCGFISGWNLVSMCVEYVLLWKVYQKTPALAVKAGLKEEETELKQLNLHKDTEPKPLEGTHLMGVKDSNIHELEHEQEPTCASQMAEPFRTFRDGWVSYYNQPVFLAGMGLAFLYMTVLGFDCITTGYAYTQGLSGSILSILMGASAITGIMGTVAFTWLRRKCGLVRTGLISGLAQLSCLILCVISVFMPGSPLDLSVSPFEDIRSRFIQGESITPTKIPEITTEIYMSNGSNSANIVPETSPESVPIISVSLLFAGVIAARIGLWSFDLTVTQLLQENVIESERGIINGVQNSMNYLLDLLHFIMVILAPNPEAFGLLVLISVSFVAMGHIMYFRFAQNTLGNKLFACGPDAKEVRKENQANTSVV
Briefly: In vitro hepcidin activity ferritin assay. The assay is classed as cell-based. As to conditions: 293 cells with tetracycline-inducible ferroportin; 1 μg/ml hepcidin; 17-20 hours. As for the experimental part: Human hepcidin purified or produced according to Examples 1, 2, 3 and 4 was assayed for iron-regulating bioactivity in an in vitro cellular assay. […] The action of ferroportin can be reduced in a dose-dependent manner by hepcidin treatment.
293 cells expressing a tetracycline-inducible ferroportin gene were plated at 50,000 cells per well (70-80% density) in a 96 well BioCoat poly-D Lysine-coated plate in DMEM supplemented with 5% fetal bovine serum and a penicillin/streptomycin/glutamine supplement (Gibco BRL). After an overnight incubation at 37° C. with 5% CO2, the medium was replaced with assay medium (as above, but supplemented with 2.5 μg/ml doxycycline for […], 2.5 μg/ml iron citrate for iron supplemented wells and 1 μg/ml hepcidin for hepcidin treatment wells). The plate was further incubated for 17-20 hours as above before washing the wells in cold PBS and lysing in 120 ul of 1% Triton lysis buffer on ice for 15 minutes. 100 μl of lysates were used for ferritin analysis (Olympus AU400 clinical chemistry analyzer) and 10 μl for BCA protein assay (Pierce). Ferritin results were normalized for protein content.

The target of assay [2] is T2, human hepcidin (Homo sapiens, UniProt P81172).
T2 construct: The pro-region of the protein was enzymatically cleaved by incubation with Kex protease; made in house; host or cells: E. coli
T2 sequence (P81172 60-84 limits assumed): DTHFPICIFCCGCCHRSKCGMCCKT
Briefly: Neutralization of injected human hepcidin in mice (hypoferremic response). The assay is classed as in vivo. As to conditions: 25 μg i.p. with isotype control antibody; female C57BL/6 mice; two hours. As for the experimental part: Activity of anti-human hepcidin antibodies was evaluated in vivo in mice that were administered human hepcidin in an amount sufficient to generate a hypoferremic response. On day 0, female C57BL/6 mice were injected subcutaneously with a murine monoclonal antibody (Ab2.7) directed against human hepcidin. Control mice received murine IgG1 as an isotypic control. At day 3, the mice received a single intraperitoneal injection of 25 μg E. coli-derived recombinant human Hepcidin (rhHepc). Serum iron levels were analyzed two hours later. […] Statistics represent ANOVA with a Dunnett's post-hoc test comparing all groups against the saline control.

Assay [3] deals with T3, E. coli-derived human hepcidin (Homo sapiens, UniProt P81172).
T3 construct: The pro-region of the protein was enzymatically cleaved by incubation with Kex protease; made in house; host or cells: E. coli
T3 sequence (P81172 60-84 limits assumed): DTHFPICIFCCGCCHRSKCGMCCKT
Description: Biacore concurrent binding to hepcidin captured on antibody 1S1 surface (sandwich pairing). As to conditions: 20 nM hepcidin on 1S1 surface, then 50 nM antibody. As for the experimental part: Using Biacore analysis, a surface coated with antibody 1S1 was tested for the concurrent binding of hepcidin and another antibody (FIG. 28). Immobilization of anti-Hepc antibody 1S1 to the sensor chip surface was performed according to manufacturer's instructions using a continuous flow of 0.005% P-20/PBS buffer. Briefly, carboxyl groups on the sensor chip surfaces were activated by injecting 60 μL of a mixture containing 0.2 M N-ethyl-N′-(dimethylaminopropyl)carbodiimide (EDC) and 0.05 M N-hydroxysuccinimide (NHS). This was followed by injecting 1S1 diluted in 10 mM acetate, pH 4.0 at concentrations between 20 μg/mL. Excess reactive groups on the surfaces were deactivated by injecting 60 μL of 1 M ethanolamine. Final immobilized levels were 5,000-6,000 resonance units (RU) for the Ab 1S1 surface. A blank, mock-coupled reference surface was also prepared on the sensor chip. 20 nM E. coli-derived human hepcidin was injected over and bound to the 1S1 antibody surface. Then 50 nM antibody 2.7, 23F11, 26F11, and 1S1 were injected over the hepcidin/1S1 surface. After the antibody injection, the surfaces were regenerated by injecting 30 μL 10 mM HCl pH 2.0.
In general terms: Surface plasmon resonance follows binding to a sensor surface in real time, without labels.

For “hydrogen-DTHFPICIFCCGCCHRSKCGMCCKT-free acid [synthetic hepcidin]”, the “iron retention (ferritin)” value in assay [1] was “increase in iron retention”. With “recombinant hepcidin: human hepcidin produced recombinantly according to Examples 2 and 3 (CHO- or E. coli-derived)”, in assay [1], the “iron retention (ferritin)” value was “increase in iron retention”. As to “rhHepc: E. coli-derived recombinant human Hepcidin”, the “serum iron levels after hepcidin injection” value in assay [2] is reported as “hypoferremia”. Regarding “urinary hepcidin: Human hepcidin isolated from urine of sepsis patients”, the “iron retention (ferritin)” value in assay [1] is given as “increase in iron retention”.

B1: Antibody 26F11: human antibody from Xenomouse, SEQ ID NOs: 187-196 (antibody)
heavy: QVQLVESGGGVVQPGRSLRLSCAASGFTFSNYGMHWVRQAPGKGLEWVAVIWYVGSNKYYADSVKGRFTISRDNSKNTLYLQMNSLRAEDTAVYYCARAQEGMAPDAFDIWGQGTMVTVSSASTKGPSVFPLAPCSRSTSESTAALGCLVKDYFPEPVTVSWNSGALTSGVHTFPAVLQSSGLYSLSSVVTVPSSNFGTQTYTCNVDHKPSNTKVDKTVERKCCVECPPCPAPPVAGPSVFLFPPKPKDTLMISRTPEVTCVVVDVSHEDPEVQFNWYVDGVEVHNAKTKPREEQFNSTFRVVSVLTVVHQDWLNGKEYKCKVSNKGLPAPIEKTISKTKGQPREPQVYTLPPSREEMTKNQVSLTCLVKGFYPSDIAVEWESNGQPENNYKTTPPMLDSDGSFFLYSKLTVDKSRWQQGNVFSCSVMHEALHNHYTQKSLSLSPGK
light: SYELTQPPSVSVSPGQTASITCSGDKMGERYACWYQQKPGQSPILVIYQDTKRPSGIPERFSGSNSGNTATLTISGTQAMDEADYYCQAWYSSTNVVFGGGTKLTVLGQPKAAPSVTLFPPSSEELQANKATLVCLISDFYPGAVTVAWKADSSPVKAGVETTTPSKQSNNKYAASSYLSLTPEQWKSHRSYSCQVTHEGSTVEKTVAPTECS
With B1, the “ability to bind hepcidin concurrently with 1S1 (sandwich pair)” value in assay [3] was “markedly lower ability to bind to hepcidin concurrently with 1S1”.
